# Experimental data taken from patent CN114621343A.
# Legend:
# [1] = target: JEV病毒抗原 (JEV Beijing-1株) (Japanese encephalitis virus, Beijing-1 strain); assay: cell-based or functional assay
# [2] = target: JEV包膜E蛋白 (Japanese encephalitis virus (strain not stated)); assay: SPR, Biacore T200; 2G1 captured on CM5 chip, E protein as analyte
binder,measurement,setting,value
"乙型脑炎病毒鼠源性单克隆抗体2G1 (antibody, V domains shown) VH: DVQLQESGLDRVKPSQSLSLTCTVTGYSIISGYSWHWIRQFPGKKLEWMGYIHYSGSATYSPSLKSRISITRDTSKNQFFLQLNSVTTEDTATFYCARGDGSSPYYGMDHWGQGTSVTVSS VL: DIVLTQSPPSLAVSLGQRATISCRASESVEYSGTGLIHWYQQKPGQPPKLLIYAASSVESGVPARFSGSGSGTDFSLNIHPVEDDDLALYFCQQSRKLPWTFGGGSKLEINR",半数中和浓度(Neut50),[1],0.149 µg/mL
same,Kd,[2],16.5 nM
same,koff,[2],7.06e-05 s⁻¹
same,kon,[2],4270 M⁻¹ s⁻¹
